The values that follow come from the supplement of paper PMC12764529.

± gives the half width of the 95% confidence interval.

A short description of data set [1]: folding stability dG unfold from trypsin proteolysis; higher = more stable. The essentials: (§1)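 How resistant each design was to proteolysis was captured as K50, inferred by Bayesian fitting of sequencing counts. Unfolding free energy was then derived relative to a sequence-predicted unfolded-state K50 and a shared folded-state K50, per protease or combined. Digestion used trypsin and chymotrypsin at 11 threefold-diluted concentrations plus a no-protease condition, on mini-proteins under 80 residues without cysteine in a PA-tagged cDNA display construct. Designs were kept only when AlphaFold2 dimer inter-PAE was above 15.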

The nature of data set [2]: folding stability dG unfold from chymotrypsin proteolysis; higher = more stable. The method in brief: as §1
Data set [3] is described as follows: folding stability dG unfold (combined trypsin and chymotrypsin); higher = more stable. The method in brief:
as §1

For “SAGGSKTVTVTVRIKVTNEDGEELTVTARLTYNEETGEVTVEIEMSPEALERLRELFPDVKIEIYPSAGGSA [r2_409_TrROS_Hall]”, the “folding stability dG unfold” value in data set [1] was 4.08 ± 0.22 kcal/mol; in data set [2], 3.09 ± 0.13 kcal/mol; in data set [3], 3.9 ± 0.32 kcal/mol.

As to “SAGGSKVTLEVNEDGTVTLTVTRPDGKKVTLTITKNEDGTYTIRDEETGKTITVPAGMSIEELLKASAGGSA [r2_338_TrROS_Hall]”, the “folding stability dG unfold” value was found to be 3.69 ± 0.12 kcal/mol in data set [1], 5.17 ± 0.14 kcal/mol in data set [2] and 5.09 ± 0.1 kcal/mol in data set [3].

As to “SAGGSLKIKIRNPDGMPFKIDVVRYPNHIRIKFKFGNKPVAFMIDPESDTINFRIPGWPFQIEIEPSAGGSA [r2_194_TrROS]”, the “folding stability dG unfold” value in data set [1] is 2.96 ± 0.096 kcal/mol; in data set [2], 3.39 ± 0.092 kcal/mol; in data set [3], 3.26 ± 0.15 kcal/mol.

Regarding “SAGGSLPELLKLAKELAKKLGAKDLTAKESGEITIKSPENITITVSTEDGEPVVTINNTSTSSTIPLSAGGS [r16_296_JUSTAS]”, the figures for the “folding stability dG unfold” value in data set [1], in data set [2] and in data set [3] were -0.36 ± 0.32 kcal/mol, -0.185 ± 0.22 kcal/mol and -0.18 ± 0.26 kcal/mol, respectively.

“SAGGSLRQLIRALFKKKGIPIEPEKVDPNWVTFKVPNKDVKIDLPDGNKIEIKPNGYVRIRIPPDDLSAGGS [r8_297_TrROS]”: the figures for the “folding stability dG unfold” value in data set [1], in data set [2] and in data set [3] were -0.172 ± 0.68 kcal/mol, -0.354 ± 0.89 kcal/mol and -0.1 ± 0.4 kcal/mol, respectively.

In the case of “SAGGSLTAEWDTSTGTVRLTFPDGSVVELPFPTSGAVVRATVDGDKVTIEVLDKDNPKVVARFTFDLGSAGG [r13_938_TrMRF]”, the “folding stability dG unfold” value in data set [1] came to 3.79 ± 0.2 kcal/mol; in data set [2] it was 4.74 ± 0.15 kcal/mol; in data set [3] it was 4.37 ± 0.19 kcal/mol.

“SAGGSLVTTEFPGVTITTDPATGVLTVEASPEEVERLIEALGPEFNPVEIRRLPDGSYLLTLPVTPPSAGGS [r8_415_JUSTAS]”: the “folding stability dG unfold” value in data set [1] is 2.13 ± 0.03 kcal/mol; in data set [2] it was 2.042 ± 0.02 kcal/mol; in data set [3] it was 2.1 ± 0.03 kcal/mol.

Take “SAGGSMALVEIERPGGEGALRTVDTSNPAAVKAFVDAVPEDEPVRVYTDDPAVVELFKEAGFDEVLLESAGG [r13_476_JUSTAS]”: the “folding stability dG unfold” value in data set [1] was -0.0819 ± 0.053 kcal/mol; in data set [2], 0.775 ± 0.087 kcal/mol; in data set [3], 0.55 ± 0.096 kcal/mol.

With “SAGGSMAPDVKVEVEVFPDGLVLFRLTLPDGRPFLALAEVREDGRVKVVVFDLYPGEKVEFEIPIKSAGGSA [r2_99_TrMRF]”, the “folding stability dG unfold” value in data set [1] is 2.52 ± 0.12 kcal/mol; in data set [2], 3.7 ± 0.045 kcal/mol; in data set [3], 3.28 ± 0.14 kcal/mol.

Regarding “SAGGSMELELEVKNPETGKTYKVKITSFDEETGEVTVEIEDEETGETKTLTFKVEPVELVEEEEEESAGGSA [r2_147_TrROS_Hall]”, the “folding stability dG unfold” value worked out at 2.38 ± 0.1 kcal/mol in data set [1], 3.28 ± 0.037 kcal/mol in data set [2] and 3.08 ± 0.076 kcal/mol in data set [3].

As for “SAGGSMERTVELTYTFKDKPIKITITVTTDPETGTVTVPIEIETEDEKIKEPALEKAKELAEELLASAGGSA [r2_259_JUSTAS]”, the “folding stability dG unfold” value in data set [1] was 0.133 ± 0.065 kcal/mol; in data set [2], 0.26 ± 0.13 kcal/mol; in data set [3], 0.301 ± 0.12 kcal/mol.

As to “SAGGSMETRETLEERTLPNGEKVLTTTTTYPDGTVTTRTTVIHGGTSTVTTTTTPAAPVPGPAPARASAGGS [r16_523_JUSTAS]”, the “folding stability dG unfold” value in data set [1] amounted to 0.422 ± 0.028 kcal/mol; in data set [2], 2.01 ± 0.059 kcal/mol; in data set [3], 1.55 ± 0.085 kcal/mol.

For the sequence “SAGGSMEVKVEVVKDEETKEYYVKVEIRDPKTKKTITLEYKVKEEDKEEALKKAKELAEELAKKGISAGGSA [r2_221_TrROS_Hall]”, the figures for the “folding stability dG unfold” value in data set [1], in data set [2] and in data set [3] were 3.27 ± 0.14 kcal/mol, 3.64 ± 0.077 kcal/mol and 3.48 ± 0.1 kcal/mol, respectively.

On to “SAGGSMGKTPDGGEVEFFEKPEENLIFAVVKHPDGSYYVAVFKKDEDKIELIDVKEVPEGEIEELASAGGSA [r2_336_TrMRF]”, for which the “folding stability dG unfold” value in data set [1] is 1.26 ± 0.089 kcal/mol; in data set [2], 2.07 ± 0.031 kcal/mol; in data set [3] it was 1.89 ± 0.13 kcal/mol.

Take “SAGGSMGSKKVGEIELEVEIGDEKVKVKVTLYETESPDDSVSLTLDVDVEHPNGKKISKELFEKLFSAGGSA [r2_363_TrMRF]”: the “folding stability dG unfold” value is 1.15 ± 0.064 kcal/mol in data set [1], 2.14 ± 0.033 kcal/mol in data set [2] and 1.84 ± 0.15 kcal/mol in data set [3].

As to “SAGGSMIFETLGSEKLIKEKAEERGLDLVEYSVEGNKFFALLKDPAGKLVLTYSDEASVKKLGLDLSKLSAG [r5_12_JUSTAS]”, the “folding stability dG unfold” value in data set [1] is -0.265 ± 0.095 kcal/mol; in data set [2] it was 0.523 ± 0.08 kcal/mol; in data set [3], 0.299 ± 0.081 kcal/mol.

For “SAGGSMIITRDPATGLVTVYKNGKKVKTIEVPPGNPVGVSLSYNPSPNTYTVTLTTPESPVKISNLSAGGSA [r2_399_JUSTAS]”, the results for the “folding stability dG unfold” value in data set [1], in data set [2] and in data set [3] were 0.855 ± 0.032 kcal/mol, 1.31 ± 0.083 kcal/mol and 1.15 ± 0.06 kcal/mol, respectively.

Take “SAGGSMIPLTVTRYDPNSDKPVSTTPVVYDPETGTWTAYPPDGSRTTYALSLEDLIAALPSTWSVGPSAGGS [r16_543_JUSTAS]”: the “folding stability dG unfold” value in data set [1] worked out at 0.452 ± 0.034 kcal/mol; in data set [2] it was 0.599 ± 0.052 kcal/mol; in data set [3] it was 0.567 ± 0.044 kcal/mol.
